The values below come from patent publication US20040147437A1, “Calycins” (priority 2000, published 2004).

The nature of assay [1]: Ligand binding affinity of proteins for selected ligands (FIG. 5): retinol. Conditions: see FIG. 5.
Assay [2] is described as follows: Ligand binding affinity of proteins for selected ligands (FIG. 5): retinal. Particulars: see FIG. 5.
A short description of assay [3]: Ligand binding affinity of proteins for selected ligands (FIG. 5): retinoic acid. Conditions: mutant relative to native ERABP; see FIG. 5.

B1: ERABP (Arg 80 and Glu63 to isoleucine): Epididymal Retinoic acid Binding Protein with Arg 80 and Glu63 mutated to isoleucine (protein, UniProt P06911 1-188, looked up, variant E63I R80I)
chain: MENIMPFALLGLCVGLAAGTEGAVVKDFDISKFLGFWYEIAFASKMGTPGLAHKEEKMGAMVVELKENLLALTTTYYSEDHCVLIKVTATEGDGPAKFQVTILSGKKEVVVEATDYLTYAIIDITSLVAGAVHRTMKLYSRSLDDNGEALYNFRKITSDHGFSETDLYILKHDLTCVKVLQSAAESRP
As to B1, the binding of retinol result in assay [1] is given as “bind”. Besides, the binding of retinal result in assay [2] is listed as “bind”. Further, in assay [3], the “affinity for retinoic acid” value was “reduced affinity”.
